The values below come from PMC12412787.

The target in this data set is T1, Pyl1p (Yarrowia lipolytica, UniProt Q6CBN1 1-600).
T1 sequence: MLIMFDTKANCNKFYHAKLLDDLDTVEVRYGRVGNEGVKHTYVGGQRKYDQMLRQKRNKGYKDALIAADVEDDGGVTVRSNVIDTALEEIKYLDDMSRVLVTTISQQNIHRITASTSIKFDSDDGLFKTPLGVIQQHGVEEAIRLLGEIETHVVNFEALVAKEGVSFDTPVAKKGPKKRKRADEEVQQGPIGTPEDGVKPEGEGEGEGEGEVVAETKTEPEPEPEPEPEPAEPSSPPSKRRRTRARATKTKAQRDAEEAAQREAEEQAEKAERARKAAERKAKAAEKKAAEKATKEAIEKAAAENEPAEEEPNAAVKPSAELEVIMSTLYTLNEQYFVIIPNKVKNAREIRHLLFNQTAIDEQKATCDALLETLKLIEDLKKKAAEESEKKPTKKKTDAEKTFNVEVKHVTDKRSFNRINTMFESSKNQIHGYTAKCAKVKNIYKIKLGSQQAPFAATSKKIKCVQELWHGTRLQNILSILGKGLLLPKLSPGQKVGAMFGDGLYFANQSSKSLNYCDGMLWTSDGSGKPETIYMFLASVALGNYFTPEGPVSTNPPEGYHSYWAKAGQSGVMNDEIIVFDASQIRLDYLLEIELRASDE
Kind of data set: EMSA. (Mobility shift assays separate free from complexed probe on a gel.)

B1: dsTEL probe (YlipTEL_G/YlipTEL_C) (dsDNA)
DNA 1: TTAGTCAGGGTTAGTCAGGG
DNA 2: CCCTGACTAACCCTGACTAA
Turning to B1, the binding result is listed as “binds”.
